{
  "source": "patent US20240352069A1",
  "about": "“SYNTHETIC PEPTIDE, AND COSMETIC COMPOSITION OR PHARMACEUTICAL COMPOSITION AND APPLICATION THEREOF” (SHENZHEN WINKEY TECHNOLOGY CO., LTD., priority 2021, published 2024)",
  "key": {"HaCaT cells [1]": {"test_system": "HaCaT cells", "test": "Promoting cell adhesion test (MTT after three-dimensional force)", "format": "cell-based, human", "settings": "12.5, 25, 50, 100 ppm coated plate, vs normal control group", "procedure": "(§1) Human keratinocytes (HaCaT) were purchased from the Kunming Cell Bank of the Type Culture Collection Committee of the Chinese Academy of Sciences.\nDissolve with PBS solution.\nThe cryopreserved HaCaT human cuticle cells were cultured, subcultured at a ratio of 1:2 to about 5 passages, and the cells with better growth were selected as the experimental objects.\nThe sample to be tested was added to a 96-well plate at a rate of 20 μL/well, and dried overnight in a constant temperature oven at 37° C. […] Set the detection wavelength to 490 nm, the reference wavelength to 630 nm, and use a microplate reader to read the OD value.\nBy selecting HaCaT cells, plate them in a drug-coated 96-well plate, and after incubation and a period of three-dimensional force, the cells with strong adhesion can be maintained on the 96-well plate. By performing MTT quantitative analysis on the live cells on the plate, that is, the effect of the drug on cell adhesion can be evaluated to determine whether the peptide of the present invention can improve cell elasticity. After three-dimensional force action, the more living cells remained on the 96-well plate, the greater the measured OD value, indicating the stronger the adhesion of the cells."}, "[2]": {"test": "Stability of powders at 25° C. and 40° C. (HPLC purity over time)", "description": "(§7) In Example 29, the HPLC chromatographic separation conditions were as follows: • Chromatographic column: Octadecyl bonded silica gel as filler 4.6*250 mm, 5 m • Mobile phase A: Acetonitrile (containing 0.09% trifluoroacetic acid) • Mobile phase B: 0.1% trifluoroacetic acid • Diluent: water • Flow rate: 1.0 ml/min; • Column temperature: 35° C.; • Detection wavelength: 215 nm; • Injection volume: 10 μl; • Running time: 32 min • Gradient elution table:\n(§8) The test solution: Take an appropriate amount of this product and add water to dissolve and dilute to make a solution containing 1 mg per 1 ml."}, "NIH3T3 cells": {"test_system": "NIH3T3 cells", "test": "UVB light damage repair experiment (MTT), NIH3T3", "format": "cell-based, mouse", "settings": "UVB irradiated, each dose of 12.5 ppm-100 ppm, 24 hours", "procedure": "(§2) Human keratinocytes (HaCaT) were purchased from the Kunming Cell Bank of the Type Culture Collection Committee of the Chinese Academy of Sciences, and mouse skin fibroblasts (NIH3T3) were purchased from the Shanghai Cell Bank of the Type Culture Collection Committee of the Chinese Academy of Sciences.\n(§3) Take cells in good exponential growth phase, add 0.25% trypsin digestion solution, digest to make adherent cells fall off, count 1×10^5-4×10^5 cells/mL, and make cell suspension.\n(§4) Cells were seeded into 96-well plates at 10,000 cells/well, and the UVB photodamage model was established when the cells reached about 80% confluent. […]\n(§5) After 24 hours, add 22 μL of 5 mg/mL MTT to each well, place in an incubator and incubate for 4 hours, discard the original solution, and add 150 μL/well of DMSO. After 5 minutes, use a microplate reader to read the reference OD values at 490 nm and 630 nm wavelengths.\n(§6) By establishing a UVB light-damaged cell model, administering 24 hours after ultraviolet light irradiation, and using the MTT method to detect cell proliferation activity, the ability of the peptide of the present invention to repair light-damaged cells was evaluated."}, "[3]": {"test": "Stability of aqueous solutions (HPLC purity over time)", "format": "physicochemical", "description": "as §7, §8"}, "HaCaT cells [4]": {"test_system": "HaCaT cells", "test": "UVB light damage repair experiment (MTT), HaCaT", "format": "cell-based, human", "settings": "UVB irradiated, 12.5-100 ppm, 24 hours", "procedure": "as §2, §3, §4, §5, §6"}, "HaCaT cells [5]": {"test_system": "HaCaT cells", "test": "Cell proliferation experiment (MTT), HaCaT", "format": "cell-based, human", "settings": "24 hours", "excerpt": "as §2\n• a) Take cells in good condition in exponential growth phase, add 0.25% trypsin digestion solution, digest to make adherent cells fall off, count 1-4×10^5 cells/mL, and make cell suspension; • b) Appropriately dilute 2000 cells/well of the cell suspension and inoculate it on a 96-well plate at 200 μL/well, and culture it in a constant temperature CO2 incubator for 24 hours. • c) Change the medium, add the sample to be tested, 20 μL/well, and incubate for 24 hours; • d) Add the MTT reagent into the 96-well plate, 20 μL/well, and react in the incubator for 4 hours; • e) Aspirate the supernatant, add DMSO, 150 μL/well, and shake on a plate shaker for 5 minutes; • f) After 5 minutes, use a microplate reader to read the reference OD values at 490 nm and 630 nm wavelengths, and calculate the cell viability:\nMTT method is a method to detect cell survival and growth. The measured OD value is directly proportional to cell activity. The larger the OD value, the higher the cell activity."}, "HaCaT cells [6]": {"test_system": "HaCaT cells", "test": "Scratch test (cell migration)", "format": "cell-based, human", "settings": "24 hours after scratch; peptides 100 ppm, EGF 50 U/mL; vs normal control group", "procedure": "as §1\nThe cryopreserved HaCaT cells were cultured, subcultured to about 5 passages according to the ratio of 1:2, and the cells with better growth were selected as the experimental objects. Cells were seeded in a 12-well plate at a density of 200,000 cells/well, with 2 mL of cell suspension in each well. After the cells adhered to the wall, the medium was replaced with 0.5% to 1% fetal bovine serum to maintain the cells for 24 hours to synchronize them. change. Scratch with a sterilized pipette tip, wash off the dropped cells with PBS, add the sample to be tested, continue to incubate in a 37° C., 5% CO2 incubator, and place it under an optical microscope after 24 hours to analyze the wound healing area.\nThe cell scratch migration test can reflect the proliferation and repair ability of the cells."}},
  "data": [
    {"substance": "H-Ala-Pro-Phe-Arg-Met-Gly-Ile-Met-Thr-Thr-Asn-OH (H-APFRMGIMTTN-OH) [Peptide (2)]", "values": [
      {"measurement": "adhesion ability of HaCaT cells", "setting": "HaCaT cells [1]", "value": "could improve the adhesion ability of HaCaT cells"},
      {"measurement": "powder (purity)", "setting": "[2]; 25° C., Day 20", "value": 99.146, "unit": "%"},
      {"measurement": "powder (purity)", "setting": "[2]; 40° C., Day 20, listed as Peptide(2)", "value": 98.583, "unit": "%"},
      {"measurement": "powder (purity)", "setting": "[2]; 40° C., Day 20, listed as peptide (2)", "value": "remained unchanged"},
      {"measurement": "powder (purity)", "setting": "[2]; powder, Day 0", "value": 99.291, "unit": "%"},
      {"measurement": "activity of photodamaged NIH3T3 cells (MTT)", "setting": "NIH3T3 cells", "value": "can significantly increase NIH3T3 cell activity"},
      {"measurement": "aqueous solution (purity)", "setting": "[3]; Day 8 at room temperature", "value": 99.122, "unit": "%"},
      {"measurement": "aqueous solution (purity)", "setting": "[3]; Day 18 at room temperature", "value": 98.045, "unit": "%"},
      {"measurement": "aqueous solution (purity)", "setting": "[3]; Day 18 at room temperature, listed as peptide (2)", "value": "did not change significantly"},
      {"measurement": "aqueous solution (purity)", "setting": "[3]; Solution, Day 0", "value": 99.291, "unit": "%"},
      {"measurement": "effect on improving activity of photodamaged HaCaT cells compared among peptides (1)-(5)", "setting": "HaCaT cells [4]", "value": "better effect on improving cell activity"},
      {"measurement": "impact on the activity of HaCaT cells compared among peptides (1)-(5)", "setting": "HaCaT cells [5]; 12.5-100 ppm", "value": "greater impact on the activity of HaCaT cells"},
      {"measurement": "effect on the activity of HaCaT cells (MTT)", "setting": "HaCaT cells [5]; 12.5 ppm-100 ppm, vs PBS blank control", "value": "could both improve the activity of HaCaT cells, promote their proliferation"},
      {"measurement": "scratch spacing (proliferation and migration)", "setting": "HaCaT cells [6]", "value": "shorter than that of the normal control group"}
    ]}
  ]
}
